# Measurements reported in the RNAGym collection of RNA variant scans (doi:10.1093/nar/gkz1192).
# B1: CPEB3 Ribozyme (parent)
# chain: UAACAGGGGGCCACAGCAGAAGCGUUCACGUCGCAGCCCCUGUCAGAUUCUGGUGAAUCUGCGAAUUCUGCUGUAUAUCUC
# Variants of: B1
# Assay: self-cleavage, relative activity (ratio to wild type); higher = more cleavage; in vitro, sequencing
# Method in brief: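 After error-prone PCR and barcoding, CPEB3 ribozyme mutant libraries were transcribed with T7 RNA polymerase at 37°C for 5 hours, then given 15 min with DNase I before an EDTA stop, and they cleaved during both steps. Reverse transcription with template switching preceded Illumina sequencing. Relative activity divides a variant's cleaved/total read fraction by the unmutated ribozyme's. At least 5 reads were required per variant, and three batches were averaged.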
row,Variant,self-cleavage
1,UAACAGGGGGCCGCAGCAGAAGCGUUCACGUCGCAGCCCCUGUCAGAUUCUGGUGAAUCUGCGAAUUCUGAUGUAUAUCUC,0.25
2,UAACAGGGGGCCGCAGCAGAAGCGUUCACGUCGCAGCCCCUGUCAGAUUCUGGUGAAUCUGCGAAUUCUGGUGUAUAUCUC,0.12
3,UAACAGGGGGCCGCAGCAGAAGCGUUCACGUCGCAGCCCCUGUCAGAUUCUGGUGAAUCUGCGAAUUCUGUUGUAUAUCUC,0.39
4,UAACAGGGGGCCGCAGCAGAAGCGUUCACGUCGCAGCCCCUGUCAGAUUCUGGUGAAUCUGCGAAUUCUGCUGUAUAUUUC,1.14
5,UAACAGGGGGCCGCAGCAGAAGCGUUCACGUCGCAGCCCCUGUCAGAUUCUGGUGAAUCUGCGAAUUCUGCUGUAUAUCUA,1.23
6,UAACAGGGGGCCGCAACAGAAGCGUUCACGUCGCAGCCCCUGUCAGAUUCUGGUGAAUCUGCGAAUUCUGCUGUAUAUCUC,0.24
7,UAACAGGGGGCCGCAGCAGAAACGUUCACGUCGCAGCCCCUGUCAGAUUCUGGUGAAUCUGCGAAUUCUGCUGUAUAUCUC,0.19
8,UAACAGGGGGCCGCAGCAGAACCGUUCACGUCGCAGCCCCUGUCAGAUUCUGGUGAAUCUGCGAAUUCUGCUGUAUAUCUC,0.12
9,UAACAGGGGGCCGCAGCAGAAGCAUUCACGUCGCAGCCCCUGUCAGAUUCUGGUGAAUCUGCGAAUUCUGCUGUAUAUCUC,0.27
10,UAACAGGGGGCCGCAGCAGAAGCGUUCACAUCGCAGCCCCUGUCAGAUUCUGGUGAAUCUGCGAAUUCUGCUGUAUAUCUC,0.44
11,UAACAGGGGGCCGCAGCAGAAGCGUUCACCUCGCAGCCCCUGUCAGAUUCUGGUGAAUCUGCGAAUUCUGCUGUAUAUCUC,0.16
12,UAACAGGGGGCCGCAGCAGAAGCGUUCACUUCGCAGCCCCUGUCAGAUUCUGGUGAAUCUGCGAAUUCUGCUGUAUAUCUC,0.18
13,UAACAGGGGGCCGCAGCAGAAGCGUUCACGUCACAGCCCCUGUCAGAUUCUGGUGAAUCUGCGAAUUCUGCUGUAUAUCUC,0.21
14,UAACAGGGGGCCGCAGCAGAAGCGUUCACGUCCCAGCCCCUGUCAGAUUCUGGUGAAUCUGCGAAUUCUGCUGUAUAUCUC,0.17
15,UAACAGGGGGCCGCAGCAGAAGCGUUCACGUCUCAGCCCCUGUCAGAUUCUGGUGAAUCUGCGAAUUCUGCUGUAUAUCUC,0.24
16,UAACAGGGGGCCGCAGCAGAAGCGUUCACGUCGCAACCCCUGUCAGAUUCUGGUGAAUCUGCGAAUUCUGCUGUAUAUCUC,0.35
17,UAACAGGGGGCCGCAGCAGAAGCGUUCACGUCGCAUCCCCUGUCAGAUUCUGGUGAAUCUGCGAAUUCUGCUGUAUAUCUC,0.2

row,Variant,self-cleavage
1,UAACAGGGGGCCGCAGCAGAAGCGUUCACGUCGCAGCCCCUGUCAAAUUCUGGUGAAUCUGCGAAUUCUGCUGUAUAUCUC,0.21
2,UAACAGGGGGCCGCAGCAGAAGCGUUCACGUCGCAGCCCCUGUCAGAUUCUAGUGAAUCUGCGAAUUCUGCUGUAUAUCUC,1.04
3,UAACAGGGGGCCGCAGCAGAAGCGUUCACGUCGCAGCCCCUGUCAGAUUCUUGUGAAUCUGCGAAUUCUGCUGUAUAUCUC,1.14
4,UAACAGGGGGCCGCAGCAGAAGCGUUCACGUCGCAGCCCCUGUCAGAUUCUGAUGAAUCUGCGAAUUCUGCUGUAUAUCUC,0.92
5,UAACAGGGGGCCGCAGCAGAAGCGUUCACGUCGCAGCCCCUGUCAGAUUCUGUUGAAUCUGCGAAUUCUGCUGUAUAUCUC,1.15
6,UAACAGGGGGCCGCAGCAGAAGCGUUCACGUCGCAGCCCCUGUCAGAUUCUGGUAAAUCUGCGAAUUCUGCUGUAUAUCUC,0.79
7,UAACAGGGGGCCGCAGCAGAAGCGUUCACGUCGCAGCCCCUGUCAGAUUCUGGUCAAUCUGCGAAUUCUGCUGUAUAUCUC,0.23
8,UAACAGGGGGCCGCAGCAGAAGCGUUCACGUCGCAGCCCCUGUCAGAUUCUGGUGAAUCUGCAAAUUCUGCUGUAUAUCUC,0.68
9,UAACAGGGGGCCGCAGCAGAAGCGUUCACGUCGCAGCCCCUGUCAGAUUCUGGUGAAUCUGCCAAUUCUGCUGUAUAUCUC,0.81
10,UAACAGGGGGCCGCAGCAGAAGCGUUCACGUCGCAGCCCCUGUCAGAUUCUGGUGAAUCUGCGAAUUCUACUGUAUAUCUC,0.26
11,UAACAGGGGGCCGCAGCAGAAGCGUUCACGUCGCAGCCCCUGUCAGAUUCUGGUGAAUCUGCGAAUUCUCCUGUAUAUCUC,0.45
12,UAACAGGGGGCCGCAGCAGAAGCGUUCACGUCGCAGCCCCUGUCAGAUUCUGGUGAAUCUGCGAAUUCUGCUAUAUAUCUC,1.27
13,UAACAGGGGGCCGCAGCAGAAGCGUUCACGUCGCAGCCCCUGUCAGAUUCUGGUGAAUCUGCGAAUUCUGCUCUAUAUCUC,1.12
14,UAACAGGGGGCCGCAGCAGAAGCGAUCACGUCGCAGCCCCUGUCAGAUUCUGGUGAAUCUGCGAAUUCUGCUGUAUAUCUC,0.29
15,UAACAGGGGGCCGCAGCAGAAGCGCUCACGUCGCAGCCCCUGUCAGAUUCUGGUGAAUCUGCGAAUUCUGCUGUAUAUCUC,0.36
16,UAACAGGGGGCCGCAGCAGAAGCGUACACGUCGCAGCCCCUGUCAGAUUCUGGUGAAUCUGCGAAUUCUGCUGUAUAUCUC,0.85
17,UAACAGGGGGCCGCAGCAGAAGCGUCCACGUCGCAGCCCCUGUCAGAUUCUGGUGAAUCUGCGAAUUCUGCUGUAUAUCUC,0.38
